# Conditions: Homo sapiens, Thermal, fluorescence, whole UniProt chain shown
protein,measurement,setting,value
"Bone morphogenetic protein 2 wild type, P12643 (protein) MVAGTRCLLALLLPQVLLGGAAGLVPELGRRKFAAASSGRPSSQPSDEVLSEFELRLLSMFGLKQRPTPSRDAVVPPYMLDLYRRHSGQPGSPAPDHRLERAASRANTVRSFHHEESLEELPETSGKTTRRFFFNLSSIPTEEFITSAELQVFREQMQDALGNNSSFHHRINIYEIIKPATANSKFPVTRLLDTRLVNQNASRWESFDVTPAVMRWTAQGHANHGFVVEVAHLEEKQGVSKRHVRISRSLHQDEHSWSQIRPLLVTFGHDGKGHPLHKREKRQAKHKQRKRLKSSCKRHPLYVDFSDVGWNDWIVAPPGYHAFYCHGECPFPLADHLNSTNHAIVQTLVNSVNSKIPKACCVPTELSAISMLYLDENEKVVLKNYQDMVVEGCGCR",Tm,"pH 2, Citrate",33 °C
same,Tm,"pH 3, Citrate",41 °C
same,Tm,"pH 4.5, Acetate",53 °C
same,Tm,"pH 4.5, Malonate",63 °C
same,Tm,"pH 5, Acetate",55 °C
same,Tm,"pH 6, MES",62 °C
same,Tm,"pH 7, MOPS",63 °C
same,Tm,"pH 8.5, Tris",61 °C
same,Tm,"pH 10, phosphate",59 °C
same,Tm,"pH 10.5, CAPS",52 °C
same,Tm,"pH 11, CAPS",32 °C
